Test results taken from patent US20260286413A1, “HYALURONAN SYNTHESIS, SECRETION AND LENGTH CONTROL” (UNIVERSITY OF VIRGINIA, priority 2023, published 2026).
Residue numbers refer to the chain shown, from its start. In names and notes the source's numbering stands.

B1: W491A: X1HAS1 mutant, Trp491 of WGTSGRK/R motif replaced with Ala (protein, UniProt P13563 1-588, looked up, variant W491A)
Hyaluronan synthase 1: MKEKAAETMEIPEGIPKDLEPKHPTLWRIIYYSFGVVLLATITAAYVAEFQVLKHEAILFSLGLYGLAMLLHLMMQSLFAFLEIRRVNKSELPCSFKKTVALTIAGYQENPEYLIKCLESCKYVKYPKDKLKIILVIDGNTEDDAYMMEMFKDVFHGEDVGTYVWKGNYHTVKKPEETNKGSCPEVSKPLNEDEGINMVEELVRNKRCVCIMQQWGGKREVMYTAFQAIGTSVDYVQVCDSDTKLDELATVEMVKVLESNDMYGAVGGDVRILNPYDSFISFMSSLRYWMAFNVERACQSYFDCVSCISGPLGMYRNNILQVFLEAWYRQKFLGTYCTLGDDRHLTNRVLSMGYRTKYTHKSRAFSETPSLYLRWLNQQTRWTKSYFREWLYNAQWWHKHHIWMTYESVVSFIFPFFITATVIRLIYAGTIWNVVWLLLCIQIMSLFKSIYACWLRGNFIMLLMSLYSMLYMTGLLPSKYFALLTLNKTGAGTSGRKKIVGNYMPILPLSIWAAVLCGGVGYSIYMDCQNDWSTPEKQKEMYHLLYGCVGYVMYWVIMAVMYWVWVKRCCRKRSQTVTLVHDIPDMCV
B2: T493S: X1HAS1 mutant, Thr493 replaced with Ser (protein, UniProt P13563 1-588, looked up, variant T493S)
Hyaluronan synthase 1: B1 Hyaluronan synthase 1 with A491W, T493S
B3: K218A: X1HAS1 mutant, Lys218 replaced with Ala (protein, UniProt P13563 1-588, looked up, variant K218A)
Hyaluronan synthase 1: B1 Hyaluronan synthase 1 with K218A, A491W
B4: K448A: X1HAS1 mutant, Lys448 replaced with Ala (protein, UniProt P13563 1-588, looked up, variant K448A)
Hyaluronan synthase 1: B1 Hyaluronan synthase 1 with K448A, A491W
B5: C307A: X1HAS1 mutant, Cys307 replaced with Ala (protein, UniProt P13563 1-588, looked up, variant C307A)
Hyaluronan synthase 1: B1 Hyaluronan synthase 1 with C307A, A491W
B6: H72F: X1HAS1 mutant, His72 replaced with Phe (protein, UniProt P13563 1-588, looked up, variant H72F)
Hyaluronan synthase 1: B1 Hyaluronan synthase 1 with H72F, A491W
B7: H72A: X1HAS1 mutant, His72 replaced with Ala (protein, UniProt P13563 1-588, looked up, variant H72A)
Hyaluronan synthase 1: B1 Hyaluronan synthase 1 with H72A, A491W
B8: C307S: X1HAS1 mutant, Cys307 replaced with Ser (protein, UniProt P13563 1-588, looked up, variant C307S)
Hyaluronan synthase 1: B1 Hyaluronan synthase 1 with C307S, A491W
B9: K448R: X1HAS1 mutant, Lys448 replaced with Arg (protein, UniProt P13563 1-588, looked up, variant K448R)
Hyaluronan synthase 1: B1 Hyaluronan synthase 1 with K448R, A491W
B10: W491F: X1HAS1 mutant, Trp491 replaced with Phe (protein, UniProt P13563 1-588, looked up, variant W491F)
Hyaluronan synthase 1: B1 Hyaluronan synthase 1 with A491F
B11: R381K: X1HAS1 mutant, Arg381 replaced with Lys (protein, UniProt P13563 1-588, looked up, variant R381K)
Hyaluronan synthase 1: B1 Hyaluronan synthase 1 with R381K, A491W
B12: C337S: X1HAS1 mutant, Cys337 replaced with Ser (protein, UniProt P13563 1-588, looked up, variant C337S)
Hyaluronan synthase 1: B1 Hyaluronan synthase 1 with C337S, A491W
B13: R496K: X1HAS1 mutant, Arg496 replaced with Lys (protein, UniProt P13563 1-588, looked up, variant R496K)
Hyaluronan synthase 1: B1 Hyaluronan synthase 1 with A491W, R496K
B14: R296A: X1HAS1 mutant, Arg296 replaced with Ala (protein, UniProt P13563 1-588, looked up, variant R296A)
Hyaluronan synthase 1: B1 Hyaluronan synthase 1 with R296A, A491W
B15: R496A: X1HAS1 mutant, Arg496 replaced with Ala (protein, UniProt P13563 1-588, looked up, variant R496A)
Hyaluronan synthase 1: B1 Hyaluronan synthase 1 with A491W, R496A
B16: R296K: X1HAS1 mutant, Arg296 replaced with Lys (protein, UniProt P13563 1-588, looked up, variant R296K)
Hyaluronan synthase 1: B1 Hyaluronan synthase 1 with R296K, A491W
B17: R381A: X1HAS1 mutant, Arg381 of QxxRW motif replaced with Ala (protein, UniProt P13563 1-588, looked up, variant R381A)
Hyaluronan synthase 1: B1 Hyaluronan synthase 1 with R381A, A491W
B18: R287A: X1HAS1 mutant, Arg287 replaced with Ala (protein, UniProt P13563 1-588, looked up, variant R287A)
Hyaluronan synthase 1: B1 Hyaluronan synthase 1 with R287A, A491W
B19: T493A: X1HAS1 mutant, Thr493 replaced with Ala (protein, UniProt P13563 1-588, looked up, variant T493A)
Hyaluronan synthase 1: B1 Hyaluronan synthase 1 with A491W, T493A
B20: R287K: X1HAS1 mutant, Arg287 replaced with Lys (protein, UniProt P13563 1-588, looked up, variant R287K)
Hyaluronan synthase 1: B1 Hyaluronan synthase 1 with R287K, A491W
B21: K218R: X1HAS1 mutant, Lys218 replaced with Arg (protein, UniProt P13563 1-588, looked up, variant K218R)
Hyaluronan synthase 1: B1 Hyaluronan synthase 1 with K218R, A491W

Tests used:
X1HAS1 [1] = assay: Electrophoretic HA size determination (agarose gel, Stains-all) of in vitro synthesized HA; type: biochemical, Xenopus laevis; conditions: for HA size difference versus WT product: from differences in electrophoretic mobility; for HA product versus WT: short and long reactions (1 h or 8 h), not distinguished; for HA product versus WT, long reaction: 8 h synthesis reaction
Procedure: To assess the size of HA synthesized by X1HAS1, similar reaction conditions were applied to the ones described above. […] […] Controls were carried out by digesting the synthesized polymers with hyaluronidase. Synthesis reactions were mixed with SDS-PAGE loading dye and applied to a 1% agarose gel (Ultra-pure agarose, Invitrogen) casted in an Owl B2 system (ThermoFisher). […] After the run, the gel was equilibrated in 50% ethanol for 1.5 h and subjected to staining in 0.05% Stains-all (Sigma) in 50% ethanol overnight under light-protection. Post-staining background was reduced by soaking the gel in 20% ethanol for 3-7 days in the dark. The migration of the synthesized HA species was compared to HA standards from Streptococcus equi (Sigma), as well as enzymatically generated ladders: HA LoLadder and HA HiLadder (Hyalose).

X1HAS1 [2] = assay: Substrate turnover rate quantification (UDP release, enzyme-coupled assay); type: biochemical, Xenopus laevis; conditions: UDP release; for substrate turnover rate / catalytic rate relative to WT: normalized to WT
Procedure: UDP release during HA synthesis was quantified using an enzyme-coupled assay as previously described (10, 13). Depletion of NADH was monitored at 340 nm every 60 s for 3 hours at 37° C. in a SpectraMax instrument. The raw data was processed in MS Excel and a linear phase of each reaction was determined. The rate of NADH depletion was converted to pmoles of UDP released using a UDP standardized plot (FIG. S1C) for Michaelis-Menten constant determination using GraphPad Prism. For substrate turnover rate quantification of X1HAS1 mutants, pmoles of released UDP were converted to the number of corresponding substrate turnovers per molecule of X1HAS1, per minute. Data is presented relative to wild type activity. All experiments were performed in four to eight replicates and error bars represent standard deviation from the means.
HAS transfers the UDP-activated glycosyl unit (the donor sugar) to the non-reducing end of the nascent HA polymer (the acceptor sugar). This reaction generates UDP and elongated HA as reaction products (FIG. 1A). Catalytic activity can be assessed by monitoring the release of UDP in an enzyme-coupled reaction, as previously described (10, 13), or quantifying HA, either radiometrically or by dye staining following electrophoresis.

Molecule | HA product versus WT, short reaction (X1HAS1 [1]) | substrate turnover / catalytic activity compared to WT (X1HAS1 [2]) | substrate turnover rate / catalytic rate relative to WT (X1HAS1 [2]) | HA product versus WT (X1HAS1 [1]) | further results
B1 | abolishes HA biosynthesis | abolished |  |  | 
B2 | exceeding the size of the WT product |  | 20-25% |  | HA size difference versus WT product (X1HAS1 [1]): up to 0.5 MDa
B3 |  | abolishes |  | abolishes | 
B4 | reduced length |  | 50-75% |  | 
B5 |  |  |  | low amounts of polydisperse HA | 
B6 | reduced length |  | about 10% |  | HA product versus WT, long reaction (X1HAS1 [1]): equivalent to or exceeding the HA length obtained from the WT enzyme
B7 | reduced length |  | 50-75% |  | 
B8 |  |  |  | low amounts of polydisperse HA | 
B9 | reduced length |  | 50-75% |  | HA product versus WT, long reaction (X1HAS1 [1]): equivalent to or exceeding the HA length obtained from the WT enzyme; HA size difference versus WT product (X1HAS1 [1]): up to 0.5 MDa
B10 | lower molecular weight product | reduced |  |  | 
B11 |  | cannot be replaced |  |  | 
B12 |  |  |  | slight length reduction | 
B13 | slightly increased length |  |  |  | HA product versus WT, long reaction (X1HAS1 [1]): greater polydispersity
B14 |  |  | ~30% | short HA oligosaccharide species | 
B15 |  | abolishes catalytic activity |  |  | 
B16 |  |  |  | low molecular weight | 
B17 |  | cannot be replaced |  |  | 
B18 |  |  | about 15% | short HA oligosaccharide species | 
B19 | exceeding the size of the WT product |  | 20-25% |  | 
B20 |  |  |  | polydisperse | 
B21 |  | abolishes |  | abolishes | 
